Data taken from PMC9604149, “Evolution of the vls Antigenic Variability Locus of the Lyme Disease Pathogen and Development of Recombinant Monoclonal Antibodies Targeting Conserved VlsE Epitopes” (Microbiology Spectrum, 2022).
Numbering of substitutions follows the chain as printed.

Tests used:
[1] = target: T1, recombinant VlsE protein (of strain B31) (Borreliella burgdorferi B31 (clone …, UniProt O06878)); experiment: ELISA; validation of the specificity of the purified rMAbs: antigen (IR peptide or VlsE) fixed on the plate; dilution not told; settings: both partners purified
T1 construct: VlsE of B. burgdorferi B31, clone B31-5A3: the 585-bp vlsE cassette region (including the IR1 through VR6 regions), codon-optimized; 585 bp would encode about 195 residues; also called recombinant B31 VlsE; vlsE cassette; source: E. coli BL21 (pET24), purified (Ni-NTA); estimated purity ~65%

[2] = target: T1, recombinant VlsE protein (of strain B31); experiment: ELISA; antigen (IR peptide or recombinant VlsE) coated on a 96-well plate at 10 ug/mL overnight at 4 C, blocked with 5% milk; supernatants of rabbit B cell lines applied; HRP anti-rabbit IgG secondary 1:30,000; OD450; reactive if more than 3 SD above the mean BSA reactivity; settings: one partner purified

B1: recombinant monoclonal antibody 17A8-1 (antibody, V domains shown)
VH: QSVEESGGRLVTPGTPLTLTCTVSGFPLSSYSMAWVRQAPGKGLEYIGFINTDGSAYYASWAKGRITISKTSTTVELKITSPTTEDTATYFCGTGNIWGPGTLVTVSS
VL: AQVLTQTPSSVSAAVGGTVTINCQASQSVSNNNVLAWFQQKPGQPPKRLIYSALTLDSGVPSRFKGSGSGTHFTLTISGVQCDDAATYYCAGGYDCSSNDCIAFGGGTEVVVK
notes: the antibody was detected with an anti-rabbit IgG secondary antibody; Only the variable regions are printed; also called anti-IR4 rMAb; source: made by GenScript
- binding result [1]: binds

B2: recombinant monoclonal antibody 28D3-1 (antibody, V domains shown)
VH: B1 VH with P27S, A34G, F49M, N51I, T52S, D53N, G54N, A56T
VL: B1 VL with S9A, V29T, V34A, A103T
notes: as for B1
- binding result [1]: binds

B3: antibody in the supernatant of rabbit B cell line 17A8 (antibody, V domains shown)
VH: B1 VH
VL: B1 VL
notes: Unpurified antibody of the cell line
- binding result [2]: binds

B4: antibody in the supernatant of rabbit B cell line 28D3 (antibody, V domains shown)
VH: B1 VH with P27S, A34G, F49M, N51I, T52S, D53N, G54N, A56T
VL: B1 VL with S9A, V29T, V34A, A103T
notes: as for B3
- binding result [2]: binds

B5: recombinant monoclonal antibody 15E2-1 (antibody, V domains shown)
VH: QSLEESGGGLFKPTDTLTLTCTVSGIDLSSYAMIWVRQAPGKGLEWIGYIWSSGRIWYASWAKGRFTISRTSTTVDLKLASPTTEDTATYFCARLWDIWGPGTLVTVSS
VL: AQVLTQTPSSVSAAVGGTVTISCQASQSLYNGVNLAWYQQKPGQPPKLLIFGASNLESGVSSRFRGSGSGTQFTLTISGVQCDDAATYYCLGEFSCSSADCLAFGGGTEVVVK
notes: as for B1
- binding result [1]: binds

B6: antibody in the supernatant of rabbit B cell line 15E2 (antibody, V domains shown)
VH: B5 VH
VL: B5 VL
notes: as for B3
- binding result [2]: binds

B7: recombinant monoclonal antibody 1D11-4 (antibody, V domains shown)
VH: QSLVESGGGLVQPEGSLTLTCKASGFSFSSGYDMCWVRQAPGKGLEYIACIDAGDDITHYASWVKGRFTVSKTSSTTVTLQLNSLTVADTATYFCGRFWDLWGPGTLVTVSS
VL: SSVLTQTPSPVSAAVGGTVTINCQSSQSVYDSTWLGWYQQKPGQPPKLLIYKASNLASGVPSRFKGSGSGTHFTLTISDLECDDAATYYCVGGYSGSVDNWAFGGGTEVVVK
notes: the antibody was detected with an anti-rabbit IgG secondary antibody; Only the variable regions are printed; also called anti-IR6 rMAb; source: made by GenScript
- binding result [1]: binds

B8: antibody in the supernatant of rabbit B cell line 1D11 (antibody, V domains shown)
VH: B7 VH
VL: B7 VL
notes: Unpurified antibody of the cell line; also called anti-IR6 1D11 cell line
- binding result [2]: binds
